According to US20010010923A1, “MODIFIED CARBOXYPEPTIDASE” (priority 1997, published 2001):
Where a chain is given by its changes, count along the chain named. Names may count otherwise. Marks after values point to notes of the source that are not given here.

Columns and labels:
Type in all cases: biochemical
[1] = Transpeptidation of Bz-G-A-R-A-R-X-OH at pH 6.5 at 50% substrate consumption, Table 5; set-up: key to fa: fa = aminolysis product / sum of all products formed; conditions: for Pmax (peak product yield) / fa: 750 mM H-Leu-NH2; for fa / t: 50% substrate consumption; for t: 750 mM H-Leu-NH2, 2 mM substrate, [E] 0.1 mg/mL
Procedure: Transamidation reactions were carried out generally as described in PCT Application WO 95/20039. In general, the method included dissolving the nucleophile (H-Leu-NH2, unless otherwise indicated) in 50 mM HEPES, […], 5 μl of peptide substrate (8 mM Bz-G-A-R-A-R-A-OH, unless otherwise indicated, in methanol) was added to 190 μl nucleophile solution followed by 5 μl enzyme, resulting in a substrate concentration of 0.2 mM.
(§1) During the reaction, 20 μl aliquots were removed from the reaction mixture and added to 50 μl 1% trifluoroacetic acid to quench the reaction. The reactant composition was determined by HPLC using a Waters HPLC equipped with a C-18 Waters Novapac 4μ reverse phase column and various gradients of acetonitrile in 0.1% trifluoroacetic acid. The separation was monitored at 254 nm allowing the direct quantification of the products from the integrated peak areas. The composition of the reaction mixture was determined at least twvice during the reaction, the first when 20-50% (preferably 35%) of the substrate had been consumed in the reaction and the second time when 50-90% (preferably 80%) of the peptide substrate had been consumed.
The fraction of aminolysis (fa) was expressed as the ratio between the formed aminolysis product and the sum of all products formed. Unconsumed substrate was disregarded in the calculations. […]

[2] = Transpeptidation of Bz-G-A-R-A-R-X-OH at pH 7.5 at 50% substrate consumption, Table 4; set-up: key to fa: fraction: aminolysis product / sum of all products formed; conditions: for fa / t: 50% substrate consumption; for t: 375 mM H-Leu-NH2, 2 mM substrate, [E] 0.1 mg/mL
Procedure: (§2) Transamidation reactions were carried out generally as described in PCT Application WO 95/20039. In general, the method included dissolving the nucleophile (H-Leu-NH2, unless otherwise indicated) in 50 mM HEPES, 5 mM EDTA and adjusting the pH to 7.5, 5 μl of peptide substrate (8 mM Bz-G-A-R-A-R-A-OH, unless otherwise indicated, in methanol) was added to 190 μl nucleophile solution followed by 5 μl enzyme, resulting in a substrate concentration of 0.2 mM.
as §1
(§3) The fraction of aminolysis (fa) was expressed as the ratio between the formed aminolysis product and the sum of all products formed. Unconsumed substrate was disregarded in the calculations.
Site specific mutagenesis was performed as described for Example 1 to generate the specific mutants described below. Transamidation reactions were performed as described for Examples 1.

[3] = Transpeptidation of FA-Ala-Xaa-OH with H-Gly-NH2, Table 2; conditions: 1.9 M H-Gly-NH2, pH 7.5, room temperature; for Fraction of aminolysis (fa), P1' Ala: FA-Ala-Ala-OH 0.2 mM; for Fraction of aminolysis (fa), P1' Leu: FA-Ala-Leu-OH 0.2 mM; for Fraction of aminolysis (fa), P1' Met: FA-Ala-Met-OH 0.2 mM; for Fraction of aminolysis (fa), P1' Phe: FA-Ala-Phe-OH 0.2 mM; for Fraction of aminolysis (fa), P1' Val: FA-Ala-Val-OH 0.2 mM
Procedure: as §2, §1, §3
Site specific mutagenesis was performed as described for Example 1 to produce the S1 mutants used below.
Transamidation reactions were performed as described for Example 1.

[4] = Transpeptidation of FA-Ala-OBzl with H-Leu-NH2, Table 3; conditions: FA-Ala-OBzl 0.2 mM, pH 7.5; for fa: H-Leu-NH2; for KN(app): nucleophile H-Leu-NH2 concentration at which fa is half of maximum
Procedure: as §2, §1, §3
Site specific mutagenesis was performed as described in Example 1 to produce the specific substitution mutants described below. Transamidation reactions were performed as described for Example 1.
In table 3, below, KN(app) represents the nucleophile concentration at which fa is half of the maximum value (a measure for the dissociation constant of the nucleophile). famax is the highest possible fa obtained at saturation of the enzyme with the nucleophile.
KN(app) indicates the concentration at which famax/2 is reached and thus describes the apparent binding constant of the nucleophile. Because the competing hydrolysis reaction is thought to occur while the leaving group remains attached to the to the acyl-enzyme intermediate, a low KN(app) is preferred.

[5] = Transpeptidation of Bz-G-A-R-A-R-A-OH (arginine at P1) with H-Leu-NH2, Table 1; conditions: [N] 375 mM H-Leu-NH2; 2mM substrate; pH 7.5; [E] 0.1 mg/mL
Procedure: The mutant carboxypeptidase enzvmes used in these studies were produced by site-directed mutagenesis, essentially following the procedures described in published PCT Patent Application No. WO 95/20039. In general, oligonucleotides synthesized to encode the amino acid substitution were used to produce the mutant enzymes.
as §2, with “resulting in a substrate concentration of 0.2 mM.” left out
as §1
The reaction products were collected and identified by amino acid analysis after acid hydrolysis using a Pharmacia Alpha Plus analyzer. Further identification was obtained by co-chromatography of authentic standard compounds.
as §3

[6] = leaving group A, 375 mM H-Leu-NH2
[7] = leaving group I, 375 mM H-Leu-NH2
[8] = leaving group L, 375 mM H-Leu-NH2
[9] = leaving group M, 375 mM H-Leu-NH2
[10] = leaving group V, 375 mM H-Leu-NH2

B1: N51Q + L178S + M398L: carboxypeptidase Y mutant N51Q + L178S + M398L (protein, UniProt P00729 112-532, looked up, variant N51Q L178S M398L)
Carboxypeptidase Y: KIKDPKILGIDPNVTQYTGYLDVEDEDKHFFFWTFESRNDPAKDPVILWLQGGPGCSSLTGLFFELGPSSIGPDLKPIGNPYSWNSNATVIFLDQPVNVGFSYSGSSGVSNTVAAGKDVYNFLELFFDQFPEYVNKGQDFHIAGESYAGHYIPVFASEILSHKDRNFNLTSVLIGNGSTDPLTQYNYYEPMACGEGGEPSVLPSEECSAMEDSLERCLGLIESCYDSQSVWSCVPATIYCNNAQLAPYQRTGRNVYDIRKDCEGGNLCYPTLQDIDDYLNQDYVKEAVGAEVDHYESCNFDINRNFLFAGDWMKPYHTAVTDLLNQDLPILVYAGDKDFICNWLGNKAWTDVLPWKYDEEFASQKVRNWTASITDEVAGEVKSYKHFTYLRVFNGGHLVPFDVPENALSMVNEWIHGGFSL
Pmax (peak product yield) ([1]; leaving group A): 0.70 | fa ([1]; leaving group A): 0.91 | t ([1]; leaving group A): 194 min | Pmax (peak product yield) ([1]; leaving group L): 0.80 | fa ([1]; leaving group L): 0.84 | t ([1]; leaving group L): 36 min | fraction of aminolysis for leucine as a leaving group, in words [2]: improved | Pmax (peak product yield) [2, 6]: >0.67 | fa [2, 6]: 0.87 | t ([2]; leaving group A): 24 min | fa [2, 7]: 0.82 | t ([2]; leaving group I): 129 min | Pmax (peak product yield) [2, 8]: >0.73 | Pmax (peak product yield) ([2]; leaving group L, 375 mM H-Leu-NH2, listed as N51Q+L178S+M398L): 0.73 | fa [2, 8]: 0.76 | t ([2]; leaving group L): 52 min | fa [2, 9]: 0.75 | t ([2]; leaving group M): 84 min | fa [2, 10]: 0.82 | t ([2]; leaving group V): 168 min

B2: M398R: carboxypeptidase Y S1' mutant, substitution M398R (protein, UniProt P00729 112-532, looked up, variant M398R)
Carboxypeptidase Y: B1 Carboxypeptidase Y with Q51N, S178L, L398R
Fraction of aminolysis (fa), P1' Ala [3]: 0.48 | Fraction of aminolysis (fa), P1' Leu [3]: 0.16 | Fraction of aminolysis (fa), P1' Met [3]: 0.33 | Fraction of aminolysis (fa), P1' Phe [3]: 0.11 | Fraction of aminolysis (fa), P1' Val [3]: 0.26 | fa [4]: 0.39^b | KN(app) [4]: 9.9^c mM

B3: W312L: carboxypeptidase Y S1 mutant, substitution W312L (protein, UniProt P00729 112-532, looked up, variant W312L)
Carboxypeptidase Y: B1 Carboxypeptidase Y with Q51N, S178L, W312L, L398M
fa (fraction of aminolysis) [5]: 0.07

B4: T60E: carboxypeptidase Y S1' mutant, substitution T60E (protein, UniProt P00729 112-532, looked up, variant T60E)
Carboxypeptidase Y: B1 Carboxypeptidase Y with Q51N, T60E, S178L, L398M
Fraction of aminolysis (fa), P1' Ala [3]: 0.82 | Fraction of aminolysis (fa), P1' Leu [3]: 0.05 | Fraction of aminolysis (fa), P1' Met [3]: 0.07 | Fraction of aminolysis (fa), P1' Phe [3]: 0.02 | Fraction of aminolysis (fa), P1' Val [3]: 0.33 | fa [4]: 0.94^a | KN(app) [4]: 2.0^b mM

B5: L178S + W312N: carboxypeptidase Y combination mutant L178S + W312N (protein, UniProt P00729 112-532, looked up, variant L178S W312N)
Carboxypeptidase Y: B1 Carboxypeptidase Y with Q51N, W312N, L398M
fa (fraction of aminolysis) [5]: 0.63

B6: L178D + W312N: carboxypeptidase Y combination mutant L178D + W312N (protein, UniProt P00729 112-532, looked up, variant L178D W312N)
Carboxypeptidase Y: B1 Carboxypeptidase Y with Q51N, S178D, W312N, L398M
fa (fraction of aminolysis) [5]: 0.71

B7: N51Q + L178S: carboxypeptidase Y mutant N51Q + L178S (S1' and S1 subsites) (protein, UniProt P00729 112-532, looked up, variant N51Q L178S)
Carboxypeptidase Y: B1 Carboxypeptidase Y with L398M
Pmax (peak product yield) ([1]; leaving group A): 0.78 | fa ([1]; leaving group A): 0.87 | t ([1]; leaving group A): 31 min | Pmax (peak product yield) ([1]; leaving group L): 0.26 | fa ([1]; leaving group L): 0.28 | t ([1]; leaving group L): 19 min | Pmax (peak product yield) [2, 6]: 0.60 | fa [2, 6]: 0.72 | t ([2]; leaving group A): 34 min | fa [2, 7]: 0.62 | t ([2]; leaving group I): 211 min | Pmax (peak product yield) [2, 8]: 0.18 | fa [2, 8]: 0.20 | t ([2]; leaving group L): 23 min | fa [2, 9]: 0.51 | t ([2]; leaving group M): 211 min | fa [2, 10]: 0.62 | t ([2]; leaving group V): 194 min

B8: L178D: carboxypeptidase Y S1 mutant, substitution L178D (protein, UniProt P00729 112-532, looked up, variant L178D)
Carboxypeptidase Y: B1 Carboxypeptidase Y with Q51N, S178D, L398M
fa (fraction of aminolysis) [5]: 0.81

B9: T60C: carboxypeptidase Y S1' mutant, substitution T60C (protein, UniProt P00729 112-532, looked up, variant T60C)
Carboxypeptidase Y: B1 Carboxypeptidase Y with Q51N, T60C, S178L, L398M
Fraction of aminolysis (fa), P1' Ala [3]: 0.92 | Fraction of aminolysis (fa), P1' Leu [3]: 0.19 | Fraction of aminolysis (fa), P1' Met [3]: 0.15 | Fraction of aminolysis (fa), P1' Phe [3]: 0.08 | Fraction of aminolysis (fa), P1' Val [3]: 0.27 | fa [4]: 0.98^a

B10: L245E + W312N: carboxypeptidase Y combination mutant L245E + W312N (protein, UniProt P00729 112-532, looked up, variant L245E W312N)
Carboxypeptidase Y: B1 Carboxypeptidase Y with Q51N, S178L, L245E, W312N, L398M
fa (fraction of aminolysis) [5]: 0.20

B11: W312N: carboxypeptidase Y S1 mutant, substitution W312N (protein, UniProt P00729 112-532, looked up, variant W312N)
Carboxypeptidase Y: B1 Carboxypeptidase Y with Q51N, S178L, W312N, L398M
fa (fraction of aminolysis) [5]: 0.23

B12: L178A: carboxypeptidase Y S1 mutant, substitution L178A (protein, UniProt P00729 112-532, looked up, variant L178A)
Carboxypeptidase Y: B1 Carboxypeptidase Y with Q51N, S178A, L398M
fa (fraction of aminolysis) [5]: 0.45

B13: L178D + W312D: carboxypeptidase Y combination mutant L178D + W312D (protein, UniProt P00729 112-532, looked up, variant L178D W312D)
Carboxypeptidase Y: B1 Carboxypeptidase Y with Q51N, S178D, W312D, L398M
fa (fraction of aminolysis) [5]: 0.71
